The record followed here is patent publication US20210054095A1 (PHILOGEN S P A, published 2021).

Assay [1] has as its target carbonic anhydrase IX (CAIX) as expressed on SKRC52 human renal cell carcinoma cells, SKRC52 tumour sections … (human, UniProt Q16790 38-459). Briefly: immunofluorescence on frozen human stomach sections, FITC-labelled hIgG1 at 2 ug/ml. As to the method:
Frozen sections of healthy human stomach tissue were stained as follows. Briefly, FITC-labeled antibody XE114 in human IgG1 (hIgG1) format was added at a final concentration of 2 μg/ml to acetone-fixed sections.
Counterstaining for cell nuclei was performed with DAPI. Tissue sections were mounted with fluorescent mounting medium and analysed using an Axioskop2 microscope with a 10× objective.

The target in assay [2] is CAIX coated on a CM5 chip (Example 2) (human, UniProt Q16790 38-414). Briefly: SPR (BIAcore X100), CAIX coated CM5 chip, scFv injected as serial dilutions. How it is done:
Affinity measurements were performed by surface plasmon resonance using BIAcore X100 instrument using a CAIX coated CM5 chip. The XE114 antibody without glycosylation motif in scFv format was injected as serial-dilutions, in a concentration range from […] to 15.7 nM. Regeneration of the chip was performed by HCl 10 mM.
The BIAcore analysis confirmed that the XE114 antibody without glycosylation motif in scFv format was capable of binding to CAIX.

Assay [3] concerns the target recombinant His-tagged CAIX (amino acids 120-397 of the full-length protein; SEQ ID NO: 15) (human, UniProt Q16790 120-397). As to the kind of experiment: SPR (Biacore 3000), His-tagged CAIX on CM5 chip, monomeric scFv injected at 660 nM. How it is done: Affinity measurements were performed on a Biacore 3000 instrument. 2100 RU recombinant His-tagged CAIX (SEQ ID NO: 15) were immobilized onto a CM5 chip. Peaks representing the monomeric fractions of the scFv were collected by size-exclusion chromatography on a Superdex 75 HR 10/30 column. The monomeric fraction was injected at a flow rate of 10 μl min⁻¹ over the antigen-coated chip at […] different concentrations, 660 nM, 160 nM and 80 nM. All kinetic data were evaluated using the BIAevaluation 4.1 software.

B1: XE114 antibody (with the glycosylation motif) in human IgG1 (hIgG1) format (antibody, V domains shown)
VH: EVQLLESGGGLVQPGGSLRLSCAASGFTFSSYAMSWVRQAPGKGLEWVSAIDGSGGSTYYADSVKGRFTISRDNSKNTLYLQMNSLRAEDTAVYYCVKGPPVFDYWGQGTLVTVSS
VL: SSELTQDPAVSVALGQTVRITCQGDSLRSYYASWYQQKPGQAPVLVIYGKNNRPSGIPDRFSGSSSGNTASLTITGAQAEDEADYYCNSSKWSWDPVVFGGGTKLTVLG
modifications: FITC-labelled (site and chain not stated)
notes: also called FITC-labeled antibody XE114; XE114 in IgG format
Consider B1, for which, in assay [1], the binding result is given as “binds”.

B2: XE114 antibody without glycosylation motif in scFv format (scFv)
scFv: EVQLLESGGGLVQPGGSLRLSCAASGFTFSSYAMSWVRQAPGKGLEWVSAIDGSGGSTYYADSVKGRFTISRDNSKNTLYLQMNSLRAEDTAVYYCVKGPPVFDYWGQGTLVTVSSGGGGSGGGGSGGGGSSELTQDPAVSVALGQTVRITCQGDSLRSYYASWYQQKPGQAPVLVIYGKNNRPSGIPDRFSGSSSGNTASLTITGAQAEDEADYYCQSSKWSWDPVVFGGGTKLTVLG
notes: Expressed in CHO-S cells; also called XE114 w/o glycosylation motif
As for B2, in assay [2], the affinity, expressed as Kd, was 2.71 nM and the koff is 0.000305 s⁻¹.

B3: anti-CAIX XE114 scFv antibody (with the glycosylation motif) (scFv)
scFv: EVQLLESGGGLVQPGGSLRLSCAASGFTFSSYAMSWVRQAPGKGLEWVSAIDGSGGSTYYADSVKGRFTISRDNSKNTLYLQMNSLRAEDTAVYYCVKGPPVFDYWGQGTLVTVSSGGGGSGGGGSGGGGSSELTQDPAVSVALGQTVRITCQGDSLRSYYASWYQQKPGQAPVLVIYGKNNRPSGIPDRFSGSSSGNTASLTITGAQAEDEADYYCNSSKWSWDPVVFGGGTKLTVLG
notes: also called scFv XE114; XE114 single chain Fv
On to B3, for which, in assay [3], the Kd turned out to be 15 nM.
